Target: T1, MS2 coat protein (fluorescently labelled) (MS2 virus) (UniProt P03612)
T1 sequence: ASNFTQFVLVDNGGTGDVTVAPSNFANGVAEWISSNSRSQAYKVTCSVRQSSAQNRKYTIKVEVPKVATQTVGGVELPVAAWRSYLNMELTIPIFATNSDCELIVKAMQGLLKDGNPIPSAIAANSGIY
Experiment: RNA-MaP
Settings: RNA-MaP on MiSeq chip: MS2 protein 0.7-1,500 nM, incubation 0.8-1.5 h (lowest concentrations) to 10-20 min (highest), buffer and temperature per ref. 14, not …

Row | Sequence | binding signal (fold (qARLB, off Kd / on Kd)) | binding signal (200 nM input RNA S1 (on state), scale: fold)
1 | CCGAAAACGGGAACCUUAUUCUUUAUGCAUGUUCAGGAAACUGAGCAUGCAAACAUGAGGAUCACCCAUGUGUUGUGGGAUCAGC [6348262 C85 G11 Eli Fisker mod (ratio sensor, top R2)] | 11 | –
2 | GAUUACGAGAGUGUUAUUCUUUGGAGUGGGACAUGAGGAUCACCCAUGUAAAUGUACAUGUUAGCUGCUUAGCAGUUGACAUGAU [6248647 U62 jandersonlee mod (ratio sensor, top R3)] | 34 | –
3 | AGUCCACGCUGACGUGGACAAAAGCAUGUACAUGAGGAUCACCCAUGUCAUGUACAAGCUUUUUGCUCGUCUUAAAA | – | 110

— PMC12669046
